In patent publication US20170145086A1 (VISTERRA, published 2017):
Positions count from the first letter of the chain named.

B1: 3934 (antibody, V domains shown)
VH: QVQLQQSGPELVKPGASVKLSCKAAGYIFTDYTINWVKQSPGQGLEWIGWIYPGSGNRKYNDKFKGKATMTADKSSSTAYMQLSSLTSEDSAVYFCARESNYVGYYAMDYWGQGTSVTVSS
VL: DVLMTQTPLSLPVSLGDQASISCRSSQSVVNSNGNTYLEWYLQKPGQSPNLLIYKVSNRFSGVPDRFSGSGSGTDFTLKISRVEAEDLGVYYCFQGSHVPWTFGGGTKLEIK
notes: also called monoclonal antibody 3934
B2: 4540-033 (antibody, V domains shown)
VH: QVQLVQSGAEVKKPGASVKVSCKASGYTFADYYINWVRQAPGQGLEWMGWIFPGSGSTYYAQKLQGRVTMTTDTSTSTAYMELRSLRSDDTAVYYCARGDSGRAMDYWGQGTLVTVSS
VL: DIQMTQSPSSLSASVGDRVTITCQASQDINKYLAWYQHKPGKAPKLLIHYTSTLETGVPSRFSGSGSGTDFTFTISSLQPEDIATYYCLQYDNLLTFGGGTKVEIK
B3: HuTACI-Fc-001 (Fc fusion, human, UniProt O14836 29-110, looked up)
chain: VAMRSCPEEQYWDPLLGTCMSCKTICNHQSQRTCAAFCRSLSCRKEQGKFYDHLLRDCISCASICGQHPKQCAYFCENKLRS
notes: range 29-110; also called human TACI-Fc; recombinant TACI-Fc; not shown: Fc portion of human IgG1 beginning at position E98 in CH1
B4: monoclonal antibody 3327 (antibody, V domains shown)
VH: EVQLQQSGPELVKPGASVKMSCKASGYSFTGYFMNWVKQSHGKSLEWIGRINPYNGDTFYNQKFKGKATLTVDKSSSTAHMELRSLTSEDSALYYCASEGDGYYWYFDVWGAGTTVTVSS
VL: not shown
B5: 2419-0406 (antibody, V domains shown)
VH: QVQLVQSGAEVKKPGSSVKVSCKASGYTFTDYTIHWVRQAPGQGLEWMGWIYPLRGSINYAEKFKGRVTLTADKSTSTVYMELSSLRSEDTAVYFCARHGAYYSNAFDYWGQGTLVTVSS
VL: EIVMTQSPATLSVSPGERATLSCRASESVDNDGIRFLHWYQQKPGQAPRLLIYRASTRATGIPARFSGSGSRTEFTLTISSLQSEDFAVYYCQQSNKDPYTFGGGTKVEIK
B6: 2419-0806 (antibody, V domains shown)
VH: EVQLVQSGAEVKKPGESLKISCKASGYTFTDYTIHWVRQMPGKGLEWMGWIYPLRGSINYSPSFQGQVTISADKSISTVYLQWSSLKASDTAMYFCARHGAYYSNAFDYWGQGTLVTVSS
VL: B5 VL
B7: 2419-1310 (antibody, V domains shown)
VH: B5 VH with S16A, P41T, E62Q, K65Q, L70M, D73N, T76I
VL: DIVMTQSPDSLAVSLGERATINCKSSQSVDNDGIRFLHWYQQKPGQPPKLLIYRASTRESGVPDRFSGSGSGTDFTLTISSLQAEDVAVYYCQQSNKDPYTFGGGTKVEIK
B8: 2419-1306 (antibody, V domains shown)
VH: B5 VH with S16A, P41T, E62Q, K65Q, L70M, D73N, T76I
VL: B5 VL
B9: monoclonal antibody 2419-0205 (antibody, IgG2, V domains shown)
VH: B5 VH with E62Q, K65Q, L70I, V79A
VL: B5 VL with T57N, A59E, R72G
B10: 2419-1305 (antibody, V domains shown)
VH: B5 VH with S16A, P41T, E62Q, K65Q, L70M, D73N, T76I
VL: B5 VL with T57N, A59E, R72G

Experiments:
[1] = biological target: T1, HA-GCN4 hAPRIL (amino acid residues 105-250) (human, UniProt O75888 105-250); assay: blocking ELISA, 4-parameter fit; blocked: human APRIL binding to human TACI-Fc
T1 construct: Bought (R&D Systems); also called HA-tagged GCN4 human APRIL; HA-GCN4-huAPRIL; not shown: N-terminal HA tag; GCN4 isoleucine zipper oligomerization domain
T1 sequence: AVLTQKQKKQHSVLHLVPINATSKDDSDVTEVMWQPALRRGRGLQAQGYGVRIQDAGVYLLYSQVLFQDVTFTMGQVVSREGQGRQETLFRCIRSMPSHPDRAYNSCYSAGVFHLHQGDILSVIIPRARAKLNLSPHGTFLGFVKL
Protocol: (§1) FIGS. 19A-19B depict the antibody inhibition of APRIL binding to TNFSF receptors TACI (FIG. 19A) and BCMA (FIG. 19B). Assay is based on blocking ELISA using recombinant human APRIL (R&D Systems) and Human TACI-Fc. Inhibition was analyzed by non-linear regression using a four parameter fit.
(§2) Recombinant TACI-Fc or BCMA-Fc was coated on 96 well plates in 0.1 M carbonate-bicarbonate buffer (pH 9.6), overnight at 4° C. Plates were washed three times with 1×PBST (PBS+0.025% Tween 20) followed by blocking with 1% BSA in 1×PBS, 37° C. for 1 hour. All subsequent wash steps were carried out with 1×PBST. To assess antibody blocking, either 15 ng/mL or 50 ng/mL HA-GCN4-huAPRIL was preincubated with varying antibody concentrations ranging from 0.03-30 μg/mL in binding buffer comprised of 1% BSA and 0.025% Tween-20 in 1×PBS. Preincubation was carried out at 30° C. for 1 hour with mixing. Antibody-APRIL premix with 50 ng/mL APRIL or 15 ng/mL APRIL was then added to TACI-Fc coated or BCMA-Fc coated plates, respectively, and incubated for an additional hour at 30° C. HA-tagged APRIL binding to either receptor was quantified using a goat polyclonal anti-HA tag-HRP antibody (Abcam) added at a 1:10000 dilution followed by colorimetric development using 100 μl/well of freshly prepared TMB substrate (KPL) carried out for up to 30 minutes at room temperature before quenching enzymatic reaction by the addition of 1N sulfuric acid. ELISA signal was quantified by absorbance at 450 nm. ELISA data was analyzed by non-linear regression. IC₅₀ values were calculated based on a 4 parameter fit of antibody titration curves. […] Non-blocking antibodies Aprly-1 or Aprly-5 (Enzo Biosciences) were used as negative controls. Mouse specific, blocking antibody aprily-1-1 (Adipogen) was generally used as a positive control in experiments using mouse APRIL (HA-GCN4-mAPRIL).

[2] = biological target: T1, HA-GCN4 hAPRIL (amino acid residues …); assay: blocking ELISA, 4-parameter fit; blocked: human APRIL binding to human BCMA-Fc
Protocol: as §1, §2

[3] = biological target: T1, HA-GCN4 hAPRIL (amino acid residues …); assay: blocking ELISA; blocked: human APRIL binding to human TACI-Fc; parameters: concentration or dose not given beside the values
Protocol: as §1, §2

[4] = biological target: T1, HA-GCN4 hAPRIL (amino acid residues …); assay: blocking ELISA; blocked: human APRIL binding to human BCMA-Fc; parameters: concentration or dose not given beside the values
Protocol: as §1, §2

[5] = biological target: T1, HA-GCN4 hAPRIL (amino acid residues …); assay: indirect ELISA on human APRIL; column head prints IC50 (pM), legend paragraph 725 calls the values EC50
Source text: Purified antibodies were further characterized for APRIL binding, APRIL species cross reactivity (human APRIL vs. mouse APRIL), and receptor blocking activity using TACI-Fc. For binding, an APRIL-based indirect ELISA was used to determine by first approximation the relative affinity of purified anti-APRIL antibodies to either human APRIL or mouse APRIL. ELISA method was as generally described above. […] Blocking and wash steps were completed as described. Binding of anti-APRIL antibodies to APRIL was quantified using an 8 point dilution of test antibody that spanned over a four log scale. Antibody binding to APRIL was detected using a rabbit anti-mouse IgG (H+L)-HRP conjugate (Jackson ImmunoResearch Laboratories). Antibody binding data was analyzed by non-linear regression analysis using a 3 parameter fit to determine max binding and apparent EC₅₀ values. […] Mouse specific antibody Apry-1-1 (Adipogen) was likewise used for quantification of antibody binding to mouse APRIL.

[6] = biological target: T1, HA-GCN4 hAPRIL (amino acid residues …); assay: blocking ELISA; blocked: human APRIL binding to TACI-Fc
[7] = biological target: T1, HA-GCN4 hAPRIL (amino acid residues …); assay: blocking ELISA; blocked: human APRIL binding to BCMA-Fc
Protocol: as §2
Assay is based on receptor blocking ELISA using recombinant human APRIL (R&D Systems) and either human TACI-Fc (FIG. 30A) or BCMA-Fc (FIG. 30B).

[8] = biological target: T1, HA-GCN4 hAPRIL (amino acid residues …); assay: ELISA on trimeric (GCN4-stabilised) human APRIL
Source text: APRIL trimer was stabilized by the N-terminal fusion of APRIL with an isoleucine zipper (GCN4) oligomerization domain Binding of APRIL to human TACI-Fc is shown for comparative purposes.

[9] = biological target: T1, HA-GCN4 hAPRIL (amino acid residues …); assay: blocking ELISA, 4-parameter fit; blocked: human APRIL binding to human BCMA-Fc; remark: listed apart in the source
Protocol: as §2

[10] = biological target: T1, HA-GCN4 hAPRIL (amino acid residues …); assay: blocking ELISA, 4-parameter fit; blocked: human APRIL binding to human TACI-Fc; remark: listed apart in the source
Protocol: as §2

[11] = biological target: T1, HA-GCN4 hAPRIL (amino acid residues …); assay: blocking ELISA; blocked: human APRIL binding to human TACI-Fc; parameters: concentration or dose not given beside the values; remark: listed apart in the source
Protocol: as §2

[12] = biological target: T1, HA-GCN4 hAPRIL (amino acid residues …); assay: blocking ELISA; blocked: human APRIL binding to human BCMA-Fc; parameters: concentration or dose not given beside the values; remark: listed apart in the source
Protocol: as §2

[13] = biological target: T1, HA-GCN4 hAPRIL (amino acid residues …); assay: indirect ELISA on human APRIL
[14] = biological target: T1, HA-GCN4 hAPRIL (amino acid residues …); assay: cell-based or functional assay

Binder	IC50 [6] [nM]	Relative Activity (normalised to 2419) [6]	IC50 [7] [nM]	Relative Activity (normalised to 2419) [7]	EC50 [13] [nM]	also measured
B1						IC50 [1]: 2.43 nM; IC50 [2]: 0.21 nM; % Inhibition [3]: 96%; % Inhibition [4]: 98%; EC50 [5]: 0.0101 nM
B2	0.35	1.26	3.68	15.6		
B3						EC50 [8]: 0.103 nM
B4						IC50 [9]: 2.35 nM; IC50 [10]: 3.16 nM; % Inhibition [11]: 89%; % Inhibition [12]: 99%
B5	0.33	1.2	0.25	1.05		
B6	0.32	1.17	0.21	0.89	0.00231	
B7	0.3	1.09	0.27	1.14	0.00219	
B8	0.28	1.03	0.17	0.72	0.003	IC50 (inhibition of APRIL-mediated BCMA NFκB signaling) [14]: ~0.3 nM; IC50 (inhibition of APRIL-mediated TACI NFκB signaling) [14]: ~0.66 nM
B9	0.31	1.12	0.17	0.71	0.00226	IC50 (inhibition of APRIL-mediated BCMA NFκB signaling) [14]: ~0.32 nM; IC50 (inhibition of APRIL-mediated TACI NFκB signaling) [14]: ~0.81 nM
B10	0.29	1.06	0.15	0.62	0.00241	
